The values that follow come from paper PMC11838199.

This experiment concerns the target C12ORF57-FLAG (human) (UniProt Q99622). The experiment is described as follows: co-IP.
Sequence of UniProt Q99622 (Q99622 whole entry): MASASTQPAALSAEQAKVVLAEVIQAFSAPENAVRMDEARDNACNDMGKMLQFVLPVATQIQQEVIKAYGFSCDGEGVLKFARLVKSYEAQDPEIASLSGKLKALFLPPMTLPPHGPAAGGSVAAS

In the case of “CAMK4 lacking the autoinhibitory domain (NAI) (from UniProt Q16566 1-473) (enzyme)”, the change in CAMK4 co-precipitated with C12ORF57-FLAG, against wild type CAMK4 was -65.8%.
Regarding “CAMK4 lacking the calmodulin binding domain (NCB) (from UniProt Q16566 1-473) (enzyme)”, the change in CAMK4 co-precipitated with C12ORF57-FLAG, against wild type CAMK4 was -6.13%.
